Measured values: article PMC4624681 (2015)
Substitutions are numbered along the chain they refer to.

T1: Zaire GP (1–320) with a His tag (Ebolavirus, Zaire strain, UniProt Q05320 33-320)
T1 chain: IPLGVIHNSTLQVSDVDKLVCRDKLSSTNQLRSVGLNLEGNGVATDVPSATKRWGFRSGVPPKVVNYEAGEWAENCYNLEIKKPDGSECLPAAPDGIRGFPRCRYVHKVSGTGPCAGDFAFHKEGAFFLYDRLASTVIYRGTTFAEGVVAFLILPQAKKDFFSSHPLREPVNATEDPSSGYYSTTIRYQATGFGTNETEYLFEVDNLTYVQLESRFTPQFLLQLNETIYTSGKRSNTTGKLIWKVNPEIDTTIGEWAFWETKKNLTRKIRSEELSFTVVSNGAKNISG

B1: T41 (BC-CC’-FG) chimera: hTIM-4 Ig V with the BC, CC’ and FG loops of hTIM-1 (domain or fragment)
chain: VTSETVVTEVLGHRVTLPCLYSGAVTSMCWNRGSCSLFTCKEALIRTDGMRVTSRKSAKYRLQGTIPRGDVSLTILNPSESDSGVYCCRIEHRGWFNDVKINVRLNLQRASTT
B2: T41 (BC-CC’) chimera: hTIM-4 Ig V with the BC and CC’ loops of hTIM-1 (domain or fragment)
chain: B1 chain with H92V, R93P
B3: T14 (FG) chimera: hTIM-1 Ig V with the FG loop of hTIM-4 (domain or fragment)
chain: VKVGGEAGPSVTLPCHYSGAVTSMCWNRGSCSLFTCQNGIVWTNGTHVTYRKDTRYKLLGDLSRRDVSLTIENTAVSDSGVYCCRVEVPGWFNDMKITVSLEIVPPKV
B4: T41 (CC’-FG) chimera: hTIM-4 Ig V with the CC’ and FG loops of hTIM-1 (domain or fragment)
chain: VTSETVVTEVLGHRVTLPCLYSSWSHNSNSMCWNRGSCSLFTCKEALIRTDGMRVTSRKSAKYRLQGTIPRGDVSLTILNPSESDSGVYCCRIEHRGWFNDVKINVRLNLQRASTT

Biological target: T1, Zaire GP (1–320) with a His tag
Test: SPR

Row | Binder | Kd [µM]
1 | B1 | 72.4
2 | B2 | 73.2
3 | B3 | 57.9
4 | B4 | 208
